Target: adaptor protein-2 (AP-2)
Experiment: pull-down (IP with AP-2 antibody, western blot densitometry)
Conditions: HEK-293 cells transfected with GFP-V0a1 constructs; n=4; parent: est. 1.0; read off a plot

A ratio to parent (arbitrary unit) of 0.37 was found for WT GFP-V0a1 (from UniProt Q93050) C25S in this work.
